Substitutions are numbered along the chain they refer to. Numbers in names are those of the source.
B1: N-terminal transactivation domain (NTD) of human estrogen receptor alpha, wild type (SNA-M1-Y184) (domain or fragment)
chain: SNAMTMTLHTKASGMALLHQIQGNELEPLNRPQLKIPLERPLGEVYLDSSKPAVYNYPEGAAYEFNAAAAANAQVYGQTGLPYGPGSEAAAFGSNGLGGFPPLNSVSPSPLMLLHPPPQLSPFLQPHGQQVPYYLENEPSGYTVREAGPPAFYRPNSDNRRQGGRERLASTNDKGSMAMESAKETRY
B2: N-terminal transactivation domain (NTD) of human estrogen receptor alpha, S118D mutant (domain or fragment)
chain: B1 chain with S121D

Molecular target: TATA box-binding protein (TBP) (UniProt P20226 1-339)
Sequence (P20226 whole entry): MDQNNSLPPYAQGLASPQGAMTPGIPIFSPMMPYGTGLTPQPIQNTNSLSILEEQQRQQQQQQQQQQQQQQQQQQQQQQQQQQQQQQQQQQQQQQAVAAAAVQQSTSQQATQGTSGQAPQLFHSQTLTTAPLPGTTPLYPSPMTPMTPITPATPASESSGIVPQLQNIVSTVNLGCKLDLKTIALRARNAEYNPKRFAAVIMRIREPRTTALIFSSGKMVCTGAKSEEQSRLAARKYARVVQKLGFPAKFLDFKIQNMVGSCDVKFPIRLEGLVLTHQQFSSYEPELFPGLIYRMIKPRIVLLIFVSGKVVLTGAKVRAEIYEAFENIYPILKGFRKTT
Experiment: SPR

Binder | Kd [µM]
B1 | 53 ± 12
B2 | 3.9 ± 0.4
